Assay results: patent US20140023585A1, “177 LUTETIUM-LABELED BOMBESIN ANALOGS FOR RADIOTHERAPY” (UNIVERSITATSSPITAL BASEL, priority 2010, published 2014)

What was measured:
[1] = tested on: PC-3 tumors; assay: Dosimetry by MIRD methodology from biodistribution data; assay type: in vivo; conditions: mice
Description: Doses of 150-200 Gy in the tumor could be achieved considering a maximum activity of 450 MBq to be injected per animal. Kidneys were not critical instead it was the pancreas to be the dose limiting organ. (In contrast to rodent pancreas, human pancreas expresses only very low amounts of the GRPr.)

[2] = tested on: PC-3 tumors; assay: in vivo; conditions: i.v.
Procedure: Biodistribution was investigated in NMRI nude mice bearing subcutaneous PC-3 tumors in the right hind limb at different time-points. Body weight of the male mice was approx. 30 g, 3 animals were investigated per time-point. After injecting an intravenous dose into the tail vein, mice were sacrificed at indicated time points and dissected organs were analyzed by radioactive counting. An administration dose of 100 μL was applied per animal with a mean activity of 86 kBq.
At indicated time points urine and feces were quantitatively collected. At the same time points, animals were sacrificed and exsanguinations under isoflurane anesthesia and the following organs and tissues were removed for measurement of [^177Lu] using the gamma-counter: spleen, liver, gallbladder, kidneys, lung, femur, heart, brain, fat, thyroid, muscle, skin, blood, tail, stomach (without content), prostate, intestine (with content), pancreas, adrenals, and the remaining body (designated as carcass).
Whole organs and tissues or aliquots were weighted and measured in a gamma-counter for radioactivity. In order to get the amount of total radioactivity administered in each animal (=100%) 3 aliquots (100 μL each) of the injected solution were always measured in parallel. The results of the biodistribution and excretion are reported as percent of injected dose per gram of tissue (% ID/g) and percent of injected dose per organ (% ID), respectively. All data are given as mean value±standard deviation, which were calculated by using all animals per time and sample.

[3] = Toxicity study, same therapy protocol in CD1 mice; assay type: in vivo
Procedure: A first therapy study was conducted on 25 nude mice (15-20 g) subcutaneously implanted with PC-3 ([…]). For toxicity study the same therapy protocol was applied to 25 CD1 mice. Thirteen days after implantation the mice were randomly divided in 5 groups and treated as described below: • 1. […] 200 pmol of ^natcompound 2 • 5. PBS

[4] = 37° C., 5% CO2, up to 4 days of incubation
Procedure: The mixture was incubated in a 5% CO2, 37° C. environment. At different time points, 100-μL aliquots (in triplicate) were removed and treated with 200 μL of EtOH to precipitate serum proteins. Samples were then centrifuged for 15 min at 500 rpm. […] The supernatant was analyzed with HPLC (eluents: A=0.1% trifluoroacetic acid in water and B=acetonitrile; gradient: 0 min 95% of A; 20 minutes 50% of A) to determine the stability of the peptide in serum.

SMILES: CC(C)C[C@H](NC(=O)C[C@H](O)[C@H](CC(C)C)NC(=O)[C@H](Cc1c[nH]cn1)NC(=O)CNC(=O)[C@@H](NC(=O)[C@H](C)NC(=O)[C@H](Cc1c[nH]c2ccccc12)NC(=O)[C@H](CCC(N)=O)NC(=O)[C@@H](Cc1ccccc1)NC(=O)CN1CCC(NC(=O)CN2CCN(CC(=O)O)CCN(CC(=O)O)CCN(CC(=O)O)CC2)CC1)C(C)C)C(N)=O [compound 2, [^177Lu]-DOTA-4-amino-1-carboxymethylpiperidine-D-Phe-Gln-Trp-Ala-Val-Gly-His-Sta-Leu-NH2, metal not drawn]
- dose limiting organ [1]: pancreas
- % ID Gallbladder ([2]; 1.0 h p.a.): 0.000 % ID
- % ID/g Kidney ([2]; 1.0 h p.a.): 1.72 (±0.45) % ID/g
- % ID/g Tumor ([2]; 1.0 h p.a.): 5.60 (±1.66) % ID/g
- % ID Gallbladder ([2]; 4.0 h p.a.): 0.000 % ID
- % ID/g Kidney ([2]; 24.0 h p.a.): 0.57 (±0.21) % ID/g
- % ID/g Liver ([2]; 24.0 h p.a.): 0.05 (±0.01) % ID/g
- % ID/g Tumor ([2]; 24.0 h p.a.): 6.06 (±1.53) % ID/g
- survival and health of CD1 animals [3]: alive and look healthy
- body weight of CD1 animals ([3]; stabilized after 5-6 months): increased
- stability in human serum [4]: remarkable stability
